Laboratory results taken from patent US20070203071A1 (published 2007).
Non-standard residues stand in square brackets, D forms with d. No end group written: not given here. Bpa = N[C@@H](Cc1ccc(C(=O)c2ccccc2)cc1)C(=O)O; hArg = N=C(N)NCCCC[C@H](N)C(=O)O; Ac5c = NC1(C(=O)O)CCCC1; Deg = CCC(N)(CC)C(=O)O; desNH2 = X is (desNH2); Aib = CC(C)(N)C(=O)O

B1: Deg1,3 (peptide)
peptide: [Deg]V[Deg]EIQLMHQ[hArg]AKW-NH2
modifications: N-terminus assumed
SMILES: CC[C@H](C)[C@H](NC(=O)[C@H](CCC(=O)O)NC(=O)C(CC)(CC)NC(=O)[C@@H](NC(=O)C(N)(CC)CC)C(C)C)C(=O)N[C@@H](CCC(N)=O)C(=O)N[C@@H](CC(C)C)C(=O)N[C@@H](CCSC)C(=O)N[C@@H](Cc1c[nH]cn1)C(=O)N[C@@H](CCC(N)=O)C(=O)N[C@@H](CCCCNC(=N)N)C(=O)N[C@@H](C)C(=O)N[C@@H](CCCCN)C(=O)N[C@@H](Cc1c[nH]c2ccccc12)C(N)=O
B2: parent (peptide)
peptide: [Ac5c]V[Aib]EIQLMHQ[hArg]AKW-NH2
modifications: N-terminus assumed
SMILES: CC[C@H](C)[C@H](NC(=O)[C@H](CCC(=O)O)NC(=O)C(C)(C)NC(=O)[C@@H](NC(=O)C1(N)CCCC1)C(C)C)C(=O)N[C@@H](CCC(N)=O)C(=O)N[C@@H](CC(C)C)C(=O)N[C@@H](CCSC)C(=O)N[C@@H](Cc1c[nH]cn1)C(=O)N[C@@H](CCC(N)=O)C(=O)N[C@@H](CCCCNC(=N)N)C(=O)N[C@@H](C)C(=O)N[C@@H](CCCCN)C(=O)N[C@@H](Cc1c[nH]c2ccccc12)C(N)=O
B3: Deg1,3,Bpa2 (peptide)
peptide: [Deg][Bpa][Deg]EIQLMHQ[hArg]AKW-NH2
modifications: N-terminus assumed
SMILES: CC[C@H](C)[C@H](NC(=O)[C@H](CCC(=O)O)NC(=O)C(CC)(CC)NC(=O)[C@H](Cc1ccc(C(=O)c2ccccc2)cc1)NC(=O)C(N)(CC)CC)C(=O)N[C@@H](CCC(N)=O)C(=O)N[C@@H](CC(C)C)C(=O)N[C@@H](CCSC)C(=O)N[C@@H](Cc1c[nH]cn1)C(=O)N[C@@H](CCC(N)=O)C(=O)N[C@@H](CCCCNC(=N)N)C(=O)N[C@@H](C)C(=O)N[C@@H](CCCCN)C(=O)N[C@@H](Cc1c[nH]c2ccccc12)C(N)=O

Biological target: -
Experiment: competition binding, 125I-PTH(1-15) tracer, HKRK-B28 cells

Binder	IC50 [nM]
B1	230
B2	30
B3	840
desNH2-[Ac5c]V[Aib]EIQLMHQ[hArg]AKW-NH2 [desNH2-AC5C1]	1800
